Measurements taken from the supplement of paper PMC12764529.
± gives the half width of the 95% confidence interval.

How the values were obtained:
[1] = folding stability dG unfold from chymotrypsin proteolysis; higher = more stable
Outline: (§1)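 Bayesian fitting of sequencing counts gave K50 for each design. Unfolding free energy followed by setting this against a sequence-predicted unfolded-state K50 and a shared folded-state K50, either per protease or with trypsin and chymotrypsin combined. The designs, under 80 residues and lacking cysteine, were digested in a PA-tagged cDNA display format at 11 threefold-diluted protease concentrations and without protease, and only those with AlphaFold2 dimer inter-PAE above 15 were kept.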

[2] = folding stability dG unfold from trypsin proteolysis; higher = more stable
Outline: as §1

[3] = folding stability dG unfold (combined trypsin and chymotrypsin); higher = more stable
Outline: as §1

| Sequence | folding stability dG unfold [1] [kcal/mol] | folding stability dG unfold [2] [kcal/mol] | folding stability dG unfold [3] [kcal/mol] |
| --- | --- | --- | --- |
| SAGGMLRVTATVGYAPDDPAVELAKKIAEALTPPGMKVRMKAKVTPLADGTYRIDIEVEIRPPGEPGSAGGS [r16_128_TrMRF] | 3.64 ± 0.13 | 2.65 ± 0.16 | 3.27 ± 0.14 |
| SAGGMLTGTLVDPVEGIRYTSFYDPSKPSSSITPKPIPPVPPVSLEELAERLRAATGLSREEVLALLESAGG [r13_824_JUSTAS] | 0.396 ± 0.13 | 1.02 ± 0.022 | 0.76 ± 0.072 |
| SAGGMLTLIDPETGEPFLTTPIATFTVPVTLTGPDGKPLETRTLRITLFRAYRPDGSPALILLVSPESAGGS [r8_214_TrMRF] | 4.73 ± 0.061 | 3.7 ± 0.083 | 4.3 ± 0.052 |
| SAGGMLTLPATVEGDELTLTLPTGATKTVSPNTTVKLPDGTVVSLTPVSPSSVSATVTPLPADATRPSAGGS [r16_277_JUSTAS] | 1.601 ± 0.01 | 0.208 ± 0.029 | 1.21 ± 0.07 |
| SAGGMLTLTDPETGVPYTGTPVSTTTTTVVLTTPDGTPVETVTVTVTTYEFTAPDGTPVTLTETTGLSAGGS [r8_214_JUSTAS] | 2.27 ± 0.025 | 1.75 ± 0.071 | 2.08 ± 0.052 |
| SAGGMLTYTTEYDPRGVLTVREYDPSTSKPISTHIIELGPEPVPPPVPGFPQVTPSGELRLVEDPAGPSAGG [r13_9_JUSTAS] | -0.0943 ± 0.33 | -0.178 ± 0.12 | -0.0536 ± 0.15 |
| SAGGMLVEARPVLRLTLVSPDGTPREFELPFTVPFSPENPEALLEEAEAIARAIAEATGAEAEIEIEPSAGG [r13_853_TrMRF] | 0.017 ± 0.23 | 0.506 ± 0.064 | 0.319 ± 0.15 |
| SAGGMMEIEVEIEKLEDGTYRIRIRVRLPNGEEVEKEMTFDRETGTLTITFDRPIEPDQIVEIEIEPSAGGS [r16_95_TrROS_Hall] | 4.41 ± 0.2 | 3.94 ± 0.16 | 4.27 ± 0.19 |
| SAGGMMKLNPKTLETKTTTVPLPDGSTVTLTTKLVELKFPNGEVELVTLTVETFPSEPTLTVLEEKPLSAGG [r19_158_JUSTAS] | 0.45 ± 0.1 | -0.0226 ± 0.083 | 0.341 ± 0.11 |
| SAGGMMTIEELKKLPPGAKVGDKIKIRNPATGETFTVTVLPDGRIKIEVDGKIYELPPGAEIVEIEKSAGGS [r8_162_TrROS_Hall] | 2.36 ± 0.076 | 1.93 ± 0.086 | 2.17 ± 0.13 |
| SAGGMMTPVSEETLPDGSKVLVEENPATGERTVTTLNPATGTVTTETLKRVPGENAWTLLSKTTTPAPSAGG [r19_249_JUSTAS] | 1.83 ± 0.02 | 2.033 ± 0.018 | 1.94 ± 0.041 |
| SAGGMMYLKLKVKNKNGEEIEVLIEFDEKTGKAYIYNKKTGKKIEMTLEELLKQENIEIEEIEPLPEPSAGG [r13_994_TrROS_Hall] | 4.29 ± 0.12 | 2.89 ± 0.12 | 4.07 ± 0.13 |
| SAGGMNISIEPIGRDNDRWYYMITFPGDANEIKDFIEEFLPPGLPIKVKVLEVDPENGHVTVMIEIPRSAGG [r13_491_TrROS] | 3.58 ± 0.043 | 2.21 ± 0.042 | 3.24 ± 0.058 |
| SAGGMPAKAVTTKLPDGTDRITVTTVGSGKSATIPVPAGELKVIEIEEGEETLSVSFVEVGPDNPELGSAGG [r13_122_TrMRF] | 0.374 ± 0.014 | -0.426 ± 0.044 | 0.104 ± 0.056 |
| SAGGMPEGMVVLRIRVRVEKVEVRRDPAVPGRVSRRVEVREVEIELVVDSREALEALRELGFEIEEVSAGGS [r8_482_TrROS_Hall] | 4.43 ± 0.11 | 3.79 ± 0.099 | 4.22 ± 0.08 |
| SAGGMPEKVVVLRIRVTIRRDGEEEEIELEIRLPEEGQELTEEQLLALLRELLPPGYEIRRVEIEELSAGGS [r16_407_TrROS_Hall] | 4.755 ± 0.043 | 4.63 ± 0.077 | 4.73 ± 0.048 |
| SAGGMPEPRPIPLTLTLLVDPEDPESVEEKLREFFEAFGADEITRVERELLPDGRALVTAEVLVNEPVSAGG [r13_222_TrMRF] | 1.17 ± 0.043 | 1.03 ± 0.03 | 1.15 ± 0.061 |
| SAGGMPEVKIKVEITEIKVDKETGKTVTIRIKSVEITTADGRKYRVEKEIRIRPDGSIEVKVKVEELPSAGG [r13_917_TrROS_Hall] | 4.21 ± 0.14 | 2.75 ± 0.089 | 3.75 ± 0.12 |

| Sequence | folding stability dG unfold [1] [kcal/mol] | folding stability dG unfold [2] [kcal/mol] | folding stability dG unfold [3] [kcal/mol] |
| --- | --- | --- | --- |
| SAGGMPIKSKKEAEEFIKKGGAKYLSKTKVKVKGEEKEKEFEVYEFVFKDPKTNKPILVVVPKEYIGSAGGS [r16_271_TrMRF] | 1.27 ± 0.15 | -0.0462 ± 0.2 | 0.886 ± 0.23 |
| SAGGMPKIVEIEILSEEYDPSTGVRTYTAKVTYPDGTEEVVTIPVDLTDGNATEEEVKKRVEELVLESAGGS [r16_221_JUSTAS] | 3.66 ± 0.11 | 3.95 ± 0.22 | 3.76 ± 0.13 |
| SAGGMPKPVTLPAVIELGAGPAIAVEEFPETGKLVFVFPPTHRIFVFDPNGKLVAEVDVPPDVPVSAVSAGG [r13_507_TrMRF] | 0.973 ± 0.31 | 0.901 ± 0.053 | 0.931 ± 0.15 |
| SAGGMPKTITVERTLDVDPAVLASTTPEELVARVVEELRAEGVPISSVDPQTITRGATTVTVRVTLLESAGG [r13_432_JUSTAS] | 2.322 ± 0.023 | 1.662 ± 0.014 | 2.08 ± 0.029 |
| SAGGMPPDARKLIREIAQDFGMSDIEPDEEGHVRINMPNPMMIQVDVENGEPKIKIYNNNKWREIPISAGGS [r16_296_TrROS] | 0.411 ± 0.31 | 0.355 ± 0.079 | 0.437 ± 0.13 |
| SAGGMPPGQVVRLRLERVSPTWVRLYFPETGEVLYFPVRPDATLAEAEAIARELAERLGYPVEIETVSAGGS [r16_446_TrMRF] | 3.779 ± 0.014 | 3.76 ± 0.077 | 3.8 ± 0.07 |
| SAGGMPPVVLEYEIDIKPDPNETLEDVLEKAEEFVEELKEAFPELDLKEVKVEVDPEKGKVKITVVFPSAGG [r13_1011_TrMRF] | 1.95 ± 0.14 | 1.77 ± 0.11 | 1.92 ± 0.12 |
| SAGGMPREVAKEMIENDKDAKVTFTIYRFPDGPVPSVTVEVIEADVKDPDAFLESVPEGWLVLVEPASAGGS [r16_116_TrMRF] | 1.17 ± 0.11 | 0.245 ± 0.13 | 0.769 ± 0.085 |
| SAGGMPVPVTFPFAGADEVIAFATALEELVNAPVGLTLISPSGEEREVGDPDSIVDEDGFTVRVTVPASAGG [r13_620_TrMRF] | -0.382 ± 0.16 | 1.38 ± 0.015 | 0.921 ± 0.039 |
| SAGGMPVTLEIVLPNLHDVLGPEFFDALKNITVPNGTPIKKITVKPIGDKTVILIEVDSPEDAKDILGSAGG [r13_269_TrMRF] | 1.66 ± 0.17 | 1.44 ± 0.12 | 1.58 ± 0.15 |
| SAGGMPVTTTPRTVELPDRRVEVIDRTFPNGPPRTTVVVRDPAGNLVATREFTGPEWEEWLRAEGALLSAGG [r19_90_JUSTAS] | 1.06 ± 0.035 | -0.606 ± 0.17 | 0.707 ± 0.048 |
| SAGGMRIRIVVPPEMSPEEIAELLKKLFPDYEIKVEVKTVKVKVKDEETGEEYEVEVLVVEIEIKEKSAGGS [r16_828_TrROS_Hall] | 3.78 ± 0.12 | 3.61 ± 0.18 | 3.74 ± 0.14 |
| SAGGMRIYIPPELPEEKVEEIREEAEEEFPVEVTLERFPEPGYVVLEFEGEEEELYRRIEEKIREKGSAGGS [r16_227_TrMRF] | 1.42 ± 0.35 | 1.17 ± 0.16 | 1.55 ± 0.41 |
| SAGGMRPMVVTVRYPDGSVQTLVADYDPDTDVIRFPFPSDGTERDIPAGEWREDPDYQVLSETPLSLESAGG [r13_994_JUSTAS] | 0.0211 ± 0.11 | 1.58 ± 0.045 | 0.967 ± 0.052 |
| SAGGMSALRIVAENLPEDARVVLPDGRVFPPGVELELPLEADLDVVVALDEDGRVHHVERVPLDRPLLSAGG [r13_441_TrMRF] | -0.501 ± 0.21 | -0.352 ± 0.16 | -0.389 ± 0.099 |
| SAGGMSEEVRKLAEELAKKLNIEKVEVLPDGTVRITLKNGKKIEIKVEKVEVKEVKVEVEVEEVEEESAGGS [r16_296_TrROS_Hall] | 4.11 ± 0.28 | 2.55 ± 0.27 | 3.62 ± 0.49 |
| SAGGMSVSITVTVTPTEVRVVENPTNGVNTAFTETTVTVTVNHPSSVSPEEKAALIAAVKAANPGAASAGGS [r8_306_JUSTAS] | 1.92 ± 0.57 | 2.86 ± 0.57 | 2.43 ± 0.49 |
| SAGGMTAEEIAEALRERLRELFPPGAEIEVDEIEVEEVEVEEEPVELSEEERERVEKMPEEERERLLSAGGS [r16_272_TrROS_Hall] | -0.0968 ± 0.18 | 1.27 ± 0.22 | 0.635 ± 0.33 |
